Assay results as given in publication PMC6801465.

Target: EGFR on the cell surface (Huh-7, U87MG, MDA-MB-231) (human) (UniProt P00533)
Assay: flow cytometry
Conditions: 2'-OMe on U, G, C, all A (positions 8, 14, 19, 21, 24) are DNA, Binding buffer: serum-free DMEM + 100 ug/mL tRNA, aptamers denatured 95 C 5 min, snap cooled on ice 10 min, ELONA 1 h (temperature not given)

For “UGCUUUGAUGUCGAUUCGACAGGAGGC [CL-4RNV616]”, which Kd (Huh-7 cells) is on record?
The Kd was 71.2 nM.

What about the Kd (MDA-MB-231 cells) of the same sequence?
Its Kd is 89.8 nM.

And the Kd (U87MG cells)?
The Kd was 112 nM.
